Source: patent publication US20060121032A1

Molecular target: FcγRIIIa on human PBMCs expressing heterozygous V158/F158 FcγRIIIa (human) (UniProt P08637)
Experiment: cell-based or functional assay

FcγRIIIa on human PBMCs expressing heterozygous V158/F158 FcγRIIIa (human), sequence (P08637 17-254): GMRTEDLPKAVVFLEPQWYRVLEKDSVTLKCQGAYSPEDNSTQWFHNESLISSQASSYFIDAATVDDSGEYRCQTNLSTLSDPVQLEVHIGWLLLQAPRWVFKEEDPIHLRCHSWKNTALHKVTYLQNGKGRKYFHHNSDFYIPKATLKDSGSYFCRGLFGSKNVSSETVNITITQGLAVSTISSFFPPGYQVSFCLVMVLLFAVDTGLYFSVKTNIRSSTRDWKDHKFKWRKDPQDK

| Substance | ADCC EC50 (ng/ml), DoHH-2 target cells, human PBMCs | ADCC log(EC50), DoHH-2 target cells, human PBMCs |
| --- | --- | --- |
| alemtuzumab S239D/I332E (antibody) | 3 ng/mL | 0.49 log(ng/ml) |
| alemtuzumab V264I/I332E (antibody) | 4 ng/mL | 0.6 log(ng/ml) |

Molecular target: extracellular region of human F158 FcγRIIIa with C-terminal 6×His-tag and GST-tag (human) (UniProt P08637)
Sequence (P08637 17-208): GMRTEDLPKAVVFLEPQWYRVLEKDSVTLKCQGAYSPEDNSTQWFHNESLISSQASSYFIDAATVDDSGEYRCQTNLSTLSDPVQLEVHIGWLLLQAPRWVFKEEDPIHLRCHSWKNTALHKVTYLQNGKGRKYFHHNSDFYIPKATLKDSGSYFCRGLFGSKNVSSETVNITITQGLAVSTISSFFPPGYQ
Experiment: SPR, receptor on chip

| Substance | Kd |
| --- | --- |
| WT alemtuzumab (antibody) | 730 nM |
| alemtuzumab I332E (antibody) | 72 nM |
| alemtuzumab S298A (antibody) | 285 nM |
| alemtuzumab S298A/E333A/K334A (antibody) | 156 nM |
| alemtuzumab V264I (antibody) | 550 nM |
| alemtuzumab V264I/I332E (antibody) | 52 nM |
